Measurements published in US20240092867A1 (UNIVERSITY OF CHICAGO, published 2024).

What was measured:
[1] = biological target: T1, vascular endothelial growth factor (VEGF)-A121 (human, UniProt P15692-9 27-147); assay: ELISA; peptides and vWF forms coated at 50 nM, VEGF-A in solution, detected with anti-VEGF-A antibody [panel D]
T1 construct: mature; Purchased in mature form, not glycosylated
T1 sequence (looked up): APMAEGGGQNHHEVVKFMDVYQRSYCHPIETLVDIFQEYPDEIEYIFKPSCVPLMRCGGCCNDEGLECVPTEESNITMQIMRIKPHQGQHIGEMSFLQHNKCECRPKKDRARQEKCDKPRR
Protocol: (A) Diagram of exon sequence of VEGF-A showing inclusion (+) or exclusion (−) of heparin binding domain exons for the different VEGF-A isoforms. […] Bound VEGF-A was detected using a specific antibody for VEGF-A (n=4, mean±SD). Statistical comparisons were done using ANOVA with Tukey's test compared with BSA control. **p<0.01.
ELISA was performed as previously reported1. […] After blocking with 2% BSA solution containing PBS-T, 1 μg/mL of recombinant human VEGF-A121 (PeproTech), recombinant human VEGF-A145 (R & D Systems), or recombinant human VEGF-A165 (PeproTech) was added. Bound VEGF-A was detected with 1 μg/mL of mouse anti-human VEGF-A antibody (clone: 26503, R & D systems). After 60 min of incubation, horseradish peroxidase (HRP) conjugated goat anti-mouse antibody (1:2000 dilution, Dako) was added and incubated for another 60 min. Color development and the absorbance measurement were done as described above.

[2] = biological target: T1, vascular endothelial growth factor …; assay: ELISA, peptide coated
Protocol: (§1) (A) The location of laminin-derived peptides in the LG domain of laminin α3, α4, and α5 chains. (B-F) Affinity of heparin and GFs against chemically synthesized peptides derived from the LG domain of laminin α3, α4, and α5 chains. ELISA plates were coated with 10 μg/mL laminin peptide and further incubated with (B) biotinylated heparin, (C) VEGF-A165 and VEGF-A121, (D) PlGF-2 and PlGF-1, (E) PDGF-BB, or (F) FGF-2. Concentrations were 1 μg/mL for GFs and 10 μg/mL for heparin. Bound heparin was detected with streptavidin, and bound GFs with a specific antibody for each GF (n=4, mean±SEM). Statistical analyses were done using the Mann-Whitney U test by comparing the signals obtained from the laminin peptide- and the BSA-coated wells. *p<0.05, **p<0.01.
(§2) ELISA tests were performed as described above. […] 1 μg/mL of BSA served as non-binding protein control. After blocking with 2% BSA PBS-0.05% Tween 20 (PBS-T) solution, 1 μg/mL of the recombinant human proteins (VEGF-A121, VEGF-A165, PlGF-1, PlGF-2, PDGF-BB or FGF-2) or 10 μg/mL of biotinylated heparin (Sigma-Aldrich) were added. Bound GF was detected with biotinylated antibodies for human VEGF, PlGF, PDGF-BB, or FGF-2 (R&D Systems). The antibodies were detected by streptavidin-HRP (R&D Systems).

[3] = biological target: T2, placental growth factor (PlGF)-1 (human, UniProt P49763-2 19-149); assay: ELISA, peptide coated
T2 construct: mature; Purchased in mature form
T2 sequence (looked up): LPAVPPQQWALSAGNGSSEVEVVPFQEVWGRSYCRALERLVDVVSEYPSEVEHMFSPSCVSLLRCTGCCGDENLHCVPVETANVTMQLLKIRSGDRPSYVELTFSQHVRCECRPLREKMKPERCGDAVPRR
Protocol: as §1, §2

[4] = biological target: T3, fibroblast growth factor (FGF)-2 (human, UniProt P09038 143-288); assay: ELISA, peptide coated, GF 1 µg/mL
T3 construct: mature; Purchased in mature form
Protocol: as §1, §2

[5] = biological target: T4, vascular endothelial growth factor (VEGF)-A165 (human, UniProt P15692-4 27-191); assay: ELISA, peptide coated, GF 1 µg/mL
T4 construct: mature; Purchased in mature form, not glycosylated
Protocol: as §1, §2

[6] = biological target: T5, placental growth factor (PlGF)-2 (human, UniProt P49763-3 19-170); assay: ELISA, peptide coated, GF 1 µg/mL
T5 construct: mature; Purchased in mature form
T5 sequence (looked up): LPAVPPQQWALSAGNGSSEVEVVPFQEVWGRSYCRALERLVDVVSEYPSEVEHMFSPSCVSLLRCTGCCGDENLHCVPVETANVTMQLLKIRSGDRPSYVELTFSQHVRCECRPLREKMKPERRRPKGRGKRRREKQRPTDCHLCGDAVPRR
Protocol: as §1, §2

[7] = biological target: T6, platelet-derived growth factor (PDGF)-BB (human, UniProt P01127 82-190); assay: ELISA, peptide coated, GF 1 µg/mL
T6 construct: mature; Purchased in mature form
Protocol: as §1, §2

[8] = biological target: T7, recombinant human syndecan-1 (human, UniProt P18827 23-254, limits assumed); assay: ELISA, peptide coated, syndecan 1 µg/mL, anti-His detection
T7 construct: Histidine tag of unstated position and length
T7 sequence (looked up): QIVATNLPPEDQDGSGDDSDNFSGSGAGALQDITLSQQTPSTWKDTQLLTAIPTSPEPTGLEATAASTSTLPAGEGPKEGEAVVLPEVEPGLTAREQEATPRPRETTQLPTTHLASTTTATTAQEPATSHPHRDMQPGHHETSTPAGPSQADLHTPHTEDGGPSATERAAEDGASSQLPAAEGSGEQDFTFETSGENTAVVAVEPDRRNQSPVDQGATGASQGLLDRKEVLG
Protocol: (§3) ELISA tests were performed as described above. In brief, ELISA plates were coated with 1 μg/mL laminin peptide (sequences are described in Table 1, chemically synthesized by Genscript) in PBS for 2 hrs at 37° C. 1 μg/mL of BSA served as non-binding protein control. After blocking with 2% BSA PBS-T solution, 1 μg/mL of the recombinant human syndecan-1, syndecan-2, syndecan-3, syndecan-4 (all syndecan proteins are histidine-tagged; SinoBiological) were added. Bound GF was detected with anti-histidine tag antibody (1:1000 dilution, BioLegend).

[9] = biological target: T8, recombinant human syndecan-2 (human, UniProt P34741 19-144, limits assumed); assay: as above
T8 construct: Histidine tag of unstated position and length
Protocol: as §3

[10] = biological target: T9, recombinant human syndecan-4 (human, UniProt P31431 19-145, limits assumed); assay: as above
T9 construct: Histidine tag of unstated position and length
T9 sequence (looked up): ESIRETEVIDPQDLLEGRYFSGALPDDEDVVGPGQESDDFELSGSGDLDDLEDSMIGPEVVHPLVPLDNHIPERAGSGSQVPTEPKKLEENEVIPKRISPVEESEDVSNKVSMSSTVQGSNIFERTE
Protocol: as §3

[11] = biological target: T4, vascular endothelial growth factor …; assay: cell-based or functional assay
[12] = biological target: T6, platelet-derived growth factor (PDGF)-BB; assay: cell-based or functional assay
[13] = biological target: T3, fibroblast growth factor (FGF)-2; assay: ELISA; peptide coated (10 µg/mL, legend paragraph 53), 1 µg/mL FGF-2 in solution, BSA-coated wells as control [panel F]
Protocol: as §1, §2

[14] = biological target: T6, platelet-derived growth factor (PDGF)-BB; assay: ELISA; peptide coated (10 µg/mL, legend paragraph 53), GF in solution, BSA-coated wells as control [panel E]
Protocol: as §1, §2

[15] = biological target: T6, platelet-derived growth factor (PDGF)-BB; assay: ELISA; peptide coated (10 µg/mL, legend paragraph 53), 1 µg/mL PDGF-BB in solution, BSA-coated wells as control [panel E]
Protocol: as §1, §2

[16] = biological target: T5, placental growth factor (PlGF)-2; assay: ELISA; peptide coated (10 µg/mL, legend paragraph 53), 1 µg/mL PlGF-2 in solution, BSA-coated wells as control [panel D]
Protocol: as §1, §2

bovine type I collagen = biological target: T10, bovine type I collagen (bovine, UniProt P02453 178-1191; P02465 89-1102); assay: ELISA, collagen I coated, 0.01-30 nM binder
T10 construct: PureCol, Advanced BioMatrix; coated on the plate; also called collagen I; PureCol
Protocol: ELISA plates (NUNC MaxiSorp, ThermoFisher Scientific) were coated overnight with 10 μg/mL of bovine type I collagen (PureCol, Advanced BioMatrix, San Diego CA, USA) at room temperature. The plate was further blocked using 2% bovine serum albumine (BSA) for 2 h at room temperature. […] The plate was washed thrice in PBST, and an horseradish peroxidase-conjugated anti-human Fab antibody (Jackson ImmunoResearch,) was used to detect bound FabCol variants. […] Absorbance at 450 nm was read using […], and corrected using the absorbance at 570 nm. Curve fits and dissociation constant KD were computed using Prism (GraphPad Software Inc., USA).

recombinant human BMP-2 = biological target: T11, recombinant human BMP-2 (human, UniProt P12643 283-396); assay: ELISA, rhBMP-2 coated 50 nM, binder 50 nM
T11 construct: also called rhBMP-2
T11 sequence (P12643 283-396 limits assumed): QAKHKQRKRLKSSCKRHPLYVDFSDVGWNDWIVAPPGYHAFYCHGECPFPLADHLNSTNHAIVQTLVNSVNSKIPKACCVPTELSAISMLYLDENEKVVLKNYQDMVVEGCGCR
Protocol: ELISA plates (NUNC MaxiSorp) were coated with 50 nM of recombinant human BMP-2 (CHO produced, R&D Systems, Minneapolis MN, USA) overnight at room temperature.

T6 sequence (P01127 82-190): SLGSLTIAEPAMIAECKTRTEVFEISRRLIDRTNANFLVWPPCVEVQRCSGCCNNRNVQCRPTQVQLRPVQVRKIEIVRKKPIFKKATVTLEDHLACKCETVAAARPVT
T8 sequence (P34741 19-144 limits assumed): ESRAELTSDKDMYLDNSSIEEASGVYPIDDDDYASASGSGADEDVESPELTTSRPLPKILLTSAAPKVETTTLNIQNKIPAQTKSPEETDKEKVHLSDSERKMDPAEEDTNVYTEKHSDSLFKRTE
T3 sequence (P09038 143-288): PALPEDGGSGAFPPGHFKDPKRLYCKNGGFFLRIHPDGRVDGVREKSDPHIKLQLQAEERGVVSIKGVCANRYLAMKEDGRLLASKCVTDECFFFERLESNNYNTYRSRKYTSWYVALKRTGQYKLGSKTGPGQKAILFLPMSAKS
T10 sequence (P02453 178-1191, chain 1 of 2): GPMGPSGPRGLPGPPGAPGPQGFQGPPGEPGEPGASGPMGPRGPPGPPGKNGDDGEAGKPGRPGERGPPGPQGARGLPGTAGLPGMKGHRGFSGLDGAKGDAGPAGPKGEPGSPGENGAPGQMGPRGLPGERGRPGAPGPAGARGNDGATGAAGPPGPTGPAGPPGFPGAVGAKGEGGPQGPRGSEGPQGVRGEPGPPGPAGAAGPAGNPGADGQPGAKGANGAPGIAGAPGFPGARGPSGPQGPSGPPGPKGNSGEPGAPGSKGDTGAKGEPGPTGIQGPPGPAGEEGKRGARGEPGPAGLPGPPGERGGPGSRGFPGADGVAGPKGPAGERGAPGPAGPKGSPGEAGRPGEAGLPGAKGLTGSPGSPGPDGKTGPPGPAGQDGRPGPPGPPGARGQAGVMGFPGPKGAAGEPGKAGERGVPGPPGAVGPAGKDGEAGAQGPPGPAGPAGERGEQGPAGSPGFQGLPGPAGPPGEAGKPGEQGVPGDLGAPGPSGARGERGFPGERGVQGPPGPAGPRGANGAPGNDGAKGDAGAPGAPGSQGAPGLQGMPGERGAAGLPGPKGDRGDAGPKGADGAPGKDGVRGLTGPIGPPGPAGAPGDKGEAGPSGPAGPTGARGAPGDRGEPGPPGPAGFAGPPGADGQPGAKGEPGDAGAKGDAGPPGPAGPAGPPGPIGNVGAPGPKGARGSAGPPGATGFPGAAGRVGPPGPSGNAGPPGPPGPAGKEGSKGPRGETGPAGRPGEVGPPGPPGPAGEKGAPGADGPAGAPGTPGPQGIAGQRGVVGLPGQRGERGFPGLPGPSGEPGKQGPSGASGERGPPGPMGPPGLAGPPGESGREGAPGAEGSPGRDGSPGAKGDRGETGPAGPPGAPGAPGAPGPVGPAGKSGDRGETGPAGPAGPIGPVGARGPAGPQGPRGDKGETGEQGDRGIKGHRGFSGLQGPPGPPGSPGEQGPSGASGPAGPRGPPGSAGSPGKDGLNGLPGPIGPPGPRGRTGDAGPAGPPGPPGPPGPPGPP
T10 sequence (P02465 89-1102, chain 2 of 2): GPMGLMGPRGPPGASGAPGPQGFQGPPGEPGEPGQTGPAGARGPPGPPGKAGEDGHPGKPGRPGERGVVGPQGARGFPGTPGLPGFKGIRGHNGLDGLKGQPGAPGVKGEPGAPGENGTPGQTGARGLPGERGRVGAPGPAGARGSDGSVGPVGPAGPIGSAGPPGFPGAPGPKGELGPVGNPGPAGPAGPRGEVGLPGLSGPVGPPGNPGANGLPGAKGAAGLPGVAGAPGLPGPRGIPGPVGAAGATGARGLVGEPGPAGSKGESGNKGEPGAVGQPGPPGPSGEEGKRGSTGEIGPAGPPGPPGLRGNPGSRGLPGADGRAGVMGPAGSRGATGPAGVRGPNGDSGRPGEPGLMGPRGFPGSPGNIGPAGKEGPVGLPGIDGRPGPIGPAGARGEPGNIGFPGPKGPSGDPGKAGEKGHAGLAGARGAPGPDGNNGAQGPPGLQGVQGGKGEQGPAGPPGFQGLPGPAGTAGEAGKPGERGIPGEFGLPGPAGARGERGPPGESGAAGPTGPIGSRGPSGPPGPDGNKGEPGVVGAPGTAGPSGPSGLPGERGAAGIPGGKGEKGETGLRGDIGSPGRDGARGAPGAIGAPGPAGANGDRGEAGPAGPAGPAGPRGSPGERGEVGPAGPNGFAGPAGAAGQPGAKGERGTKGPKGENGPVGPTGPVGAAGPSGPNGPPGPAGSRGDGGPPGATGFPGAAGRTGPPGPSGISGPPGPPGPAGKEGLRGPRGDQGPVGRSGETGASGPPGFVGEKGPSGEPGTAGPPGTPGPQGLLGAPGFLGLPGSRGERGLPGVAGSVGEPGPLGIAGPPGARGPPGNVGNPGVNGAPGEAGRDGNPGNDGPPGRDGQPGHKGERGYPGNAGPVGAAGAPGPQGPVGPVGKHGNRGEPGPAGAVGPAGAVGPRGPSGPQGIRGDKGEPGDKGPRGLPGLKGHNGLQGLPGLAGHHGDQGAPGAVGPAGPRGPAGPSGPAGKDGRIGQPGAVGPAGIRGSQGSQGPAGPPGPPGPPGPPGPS

B1: vWF A1 HBD (24 residues, C-terminal Cys) (peptide)
peptide: YIGLKDRKRPSELRRIASQVKYAC
notes: also the peptide coupled into the PEG matrix; also called vWF HBD-Cys; vWF A1 HBD peptide
binding result [1]: no binding (tested: 1 µg/mL VEGF-A121 (single concentration))

PLFLLHKKGKNLSKPKASQNKKGGKSK (Chemically synthesized (Genscript)) [laminin α4 1408-1434 peptide (Linker)]
binding result [2]: no binding (tested: 1 µg/mL) | binding result [3]: no binding (tested: 1 µg/mL) | binding result [4]: binds | binding result [5]: binds | binding result [6]: binds | binding result [7]: binds | binding result [8]: binds | binding result [9]: binds | binding result [10]: binds

NQEQVSPLRLVFALGTDGKKLRIKSKEKCNDGK [α2PI1-8-α3 3043-3067]
cumulative release of GF from peptide-functionalized fibrin matrix after 5 days [11]: 25% | cumulative release of GF from peptide-functionalized fibrin matrix after 5 days [12]: 45%

TPGLGPRGLQATARKASRRSRQPARHPACML (Chemically synthesized (Genscript)) [laminin α5 3300-3330 peptide (Linker)]
binding result [2]: no binding (tested: 1 µg/mL) | binding result [3]: no binding (tested: 1 µg/mL) | binding result [13]: binds | binding result [5]: binds | binding result [6]: binds | binding result [14]: no binding (tested: 1 µg/mL PDGF-BB (single concentration)) | binding result [8]: binds | binding result [9]: binds | binding result [10]: binds

PPFLMLLKGSTRFNKTKTFR (Chemically synthesized (Genscript)) [laminin α3 2932-2951 peptide (Linker)]
binding result [2]: no binding (tested: 1 µg/mL) | binding result [3]: no binding (tested: 1 µg/mL) | binding result [15]: binds | binding result [4]: binds | binding result [5]: binds | binding result [16]: binds

RQRSRPGRWHKVSVRWEKNR (Chemically synthesized (Genscript)) [laminin α5 3417-3436 peptide (LG4)]
binding result [2]: no binding (tested: 1 µg/mL) | binding result [3]: no binding (tested: 1 µg/mL) | binding result [4]: binds | binding result [5]: binds | binding result [6]: binds | binding result [7]: binds | binding result [8]: binds | binding result [9]: binds | binding result [10]: binds

NQEQVSPLRQRSRPGRWHKVSVRWEKNR [α2PI1-8-α5 3417-3436]
cumulative release of GF from peptide-functionalized fibrin matrix after 5 days [11]: 31% | cumulative release of GF from peptide-functionalized fibrin matrix after 5 days [12]: 47%

B2: FabCol-FgHBD conjugates (Fab)
light: EIVLTQSPGTLSLSPGERATLSCRASQSVSSSYLAWYQQKPGQAPRLLIYGASSRATGIPDRFSGSGSGTDFTLTISRLEPEDFAVYYCQQAIGFPQTFGQGTKVEIKRTVAAPSVFIFPPSDEQLKSGTASVVCLLNNFYPREAKVQWKVDNALQSGNSQESVTEQDSKDSTYSLSSTLTLSKADYEKHKVYACEVTHQGLSSPVTKSFNRGEC
heavy: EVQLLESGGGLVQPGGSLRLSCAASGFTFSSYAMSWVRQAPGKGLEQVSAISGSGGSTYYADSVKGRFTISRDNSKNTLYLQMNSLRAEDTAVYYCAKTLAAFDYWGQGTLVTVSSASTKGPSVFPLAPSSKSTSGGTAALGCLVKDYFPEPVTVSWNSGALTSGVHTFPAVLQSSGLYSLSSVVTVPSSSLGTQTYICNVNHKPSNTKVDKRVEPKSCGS
peptide: GCGGSLRPAPPPISGGGYRARPAKAAATQKKVERKAPDA
modifications: chemically conjugated to FabCol with sulfo-SMCC crosslinker; multiple copies per FabCol (shift of about 35 kDa)
notes: Chemical conjugate
Kd (bovine type I collagen): ~2.8 nM

B3: FabCol-p(FgHBD) recombinant fusion protein (Fab)
light: EIVLTQSPGTLSLSPGERATLSCRASQSVSSSYLAWYQQKPGQAPRLLIYGASSRATGIPDRFSGSGSGTDFTLTISRLEPEDFAVYYCQQAIGFPQTFGQGTKVEIKRTVAAPSVFIFPPSDEQLKSGTASVVCLLNNFYPREAKVQWKVDNALQSGNSQESVTEQDSKDSTYSLSSTLTLSKADYEKHKVYACEVTHQGLSSPVTKSFNRGECGAGGGSGGGHRPLDKKREEAPSLRPAPPPISGGGYRARPAKAAATQKKVERKAPDAGGGSGGGSGGGHRPLDKKREEAPSLRPAPPPISGGGYRARPAKAAATQKKVERKAPDAGGGSGGGSGGGHRPLDKKREEAPSLRPAPPPISGGGYRARPAKAAATQKKVERKAPDAGGGT
heavy: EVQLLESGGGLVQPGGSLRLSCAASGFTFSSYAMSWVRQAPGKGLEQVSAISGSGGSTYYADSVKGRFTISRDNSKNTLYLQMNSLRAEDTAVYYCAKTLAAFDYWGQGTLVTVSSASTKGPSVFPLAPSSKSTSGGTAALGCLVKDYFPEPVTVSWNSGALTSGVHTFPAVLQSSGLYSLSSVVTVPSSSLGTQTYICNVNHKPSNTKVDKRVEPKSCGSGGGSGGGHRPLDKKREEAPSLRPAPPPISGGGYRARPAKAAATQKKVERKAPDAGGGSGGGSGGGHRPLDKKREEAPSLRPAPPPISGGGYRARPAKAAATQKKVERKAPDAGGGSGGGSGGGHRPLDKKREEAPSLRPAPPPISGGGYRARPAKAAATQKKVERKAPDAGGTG
notes: Three repeats of FgHBD at the C-termini of both Fab chains
binding result (recombinant human BMP-2): binds | Kd (bovine type I collagen): ~1.7 nM
